How the values were obtained:
c-Src SH2 = experiment: SH2 binding enrichment of the phosphorylated peptide, bacterial display (enrichment ratio); higher = better substrate or ligand; peptides without Tyr show the background
SHP2-C SH2 = experiment: as above
Grb2 SH2 = Grb2 SH2 (UniProt P62993); experiment: as above
AncSZ = experiment: phosphorylation enrichment, bacterial display (enrichment ratio); higher = better substrate or ligand; peptides without Tyr show the background
MERTK = MERTK (UniProt Q12866); experiment: as above
Jak2 = Jak2 (UniProt O60674); experiment: as above
Sequence of Jak2 (O60674 whole entry, looked up): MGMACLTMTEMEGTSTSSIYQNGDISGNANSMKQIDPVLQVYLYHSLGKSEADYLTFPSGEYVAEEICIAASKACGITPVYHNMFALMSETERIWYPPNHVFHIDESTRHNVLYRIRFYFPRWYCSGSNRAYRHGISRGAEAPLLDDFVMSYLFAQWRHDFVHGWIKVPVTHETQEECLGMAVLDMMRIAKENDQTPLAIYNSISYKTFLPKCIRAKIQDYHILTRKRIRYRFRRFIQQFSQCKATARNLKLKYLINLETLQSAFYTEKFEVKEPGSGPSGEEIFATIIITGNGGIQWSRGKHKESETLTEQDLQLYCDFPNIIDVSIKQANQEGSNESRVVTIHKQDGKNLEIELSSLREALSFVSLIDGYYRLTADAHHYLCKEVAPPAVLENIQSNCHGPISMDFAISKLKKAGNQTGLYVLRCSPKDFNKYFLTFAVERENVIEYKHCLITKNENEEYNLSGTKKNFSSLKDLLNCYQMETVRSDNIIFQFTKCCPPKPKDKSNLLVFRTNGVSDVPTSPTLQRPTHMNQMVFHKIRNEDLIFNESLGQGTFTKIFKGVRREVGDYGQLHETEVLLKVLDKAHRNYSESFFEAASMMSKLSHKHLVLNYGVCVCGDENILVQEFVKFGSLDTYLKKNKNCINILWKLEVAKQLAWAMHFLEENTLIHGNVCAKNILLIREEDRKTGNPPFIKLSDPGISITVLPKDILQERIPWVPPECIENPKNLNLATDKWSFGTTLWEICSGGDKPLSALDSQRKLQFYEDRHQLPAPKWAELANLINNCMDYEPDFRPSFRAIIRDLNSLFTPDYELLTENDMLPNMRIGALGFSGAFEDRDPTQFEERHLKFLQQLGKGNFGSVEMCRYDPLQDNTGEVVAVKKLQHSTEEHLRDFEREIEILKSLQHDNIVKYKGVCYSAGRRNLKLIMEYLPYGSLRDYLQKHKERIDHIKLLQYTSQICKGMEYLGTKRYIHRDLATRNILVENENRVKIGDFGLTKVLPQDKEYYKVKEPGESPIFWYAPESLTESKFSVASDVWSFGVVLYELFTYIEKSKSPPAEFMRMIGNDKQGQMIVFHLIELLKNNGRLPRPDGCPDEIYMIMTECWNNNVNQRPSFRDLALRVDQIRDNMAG

c-Src = experiment: as above
c-Abl (mouse) = experiment: as above
Hck = Hck (UniProt P08631); experiment: as above
Sequence of Hck (P08631 whole entry, looked up): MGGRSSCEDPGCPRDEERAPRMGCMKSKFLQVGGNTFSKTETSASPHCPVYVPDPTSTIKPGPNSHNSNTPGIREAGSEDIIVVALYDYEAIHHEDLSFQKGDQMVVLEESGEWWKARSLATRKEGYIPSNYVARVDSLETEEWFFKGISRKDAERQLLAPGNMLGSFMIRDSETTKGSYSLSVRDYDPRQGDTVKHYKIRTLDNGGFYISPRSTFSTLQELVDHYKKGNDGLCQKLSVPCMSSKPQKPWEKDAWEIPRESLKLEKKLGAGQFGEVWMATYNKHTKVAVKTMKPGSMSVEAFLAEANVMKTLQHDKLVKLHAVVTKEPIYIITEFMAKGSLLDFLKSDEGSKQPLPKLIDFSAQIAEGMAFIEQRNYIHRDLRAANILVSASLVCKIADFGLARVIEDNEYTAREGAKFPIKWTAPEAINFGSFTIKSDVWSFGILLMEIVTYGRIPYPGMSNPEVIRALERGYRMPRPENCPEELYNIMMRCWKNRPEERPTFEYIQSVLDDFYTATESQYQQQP

Fyn = Fyn (UniProt P06241); experiment: as above
Sequence of Fyn (P06241 whole entry, looked up): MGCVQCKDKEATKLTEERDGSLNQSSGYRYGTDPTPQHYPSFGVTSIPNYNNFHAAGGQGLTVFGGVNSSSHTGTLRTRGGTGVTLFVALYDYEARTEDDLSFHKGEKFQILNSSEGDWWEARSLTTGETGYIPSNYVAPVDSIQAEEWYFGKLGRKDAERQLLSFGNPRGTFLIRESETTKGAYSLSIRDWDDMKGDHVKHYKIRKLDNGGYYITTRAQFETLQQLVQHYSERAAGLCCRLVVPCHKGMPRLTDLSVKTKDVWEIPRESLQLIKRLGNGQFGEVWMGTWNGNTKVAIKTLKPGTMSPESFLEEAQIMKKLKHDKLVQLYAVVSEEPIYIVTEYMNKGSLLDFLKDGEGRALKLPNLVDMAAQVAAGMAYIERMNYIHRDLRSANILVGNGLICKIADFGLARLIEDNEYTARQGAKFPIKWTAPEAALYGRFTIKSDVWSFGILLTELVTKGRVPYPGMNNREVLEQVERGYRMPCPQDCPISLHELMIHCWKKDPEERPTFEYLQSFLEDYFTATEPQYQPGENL

FGFR3 = FGFR3 (UniProt P22607); experiment: as above
EPHB2 = EPHB2 (UniProt P29323); experiment: as above
Sequence of EPHB2 (P29323 whole entry, looked up): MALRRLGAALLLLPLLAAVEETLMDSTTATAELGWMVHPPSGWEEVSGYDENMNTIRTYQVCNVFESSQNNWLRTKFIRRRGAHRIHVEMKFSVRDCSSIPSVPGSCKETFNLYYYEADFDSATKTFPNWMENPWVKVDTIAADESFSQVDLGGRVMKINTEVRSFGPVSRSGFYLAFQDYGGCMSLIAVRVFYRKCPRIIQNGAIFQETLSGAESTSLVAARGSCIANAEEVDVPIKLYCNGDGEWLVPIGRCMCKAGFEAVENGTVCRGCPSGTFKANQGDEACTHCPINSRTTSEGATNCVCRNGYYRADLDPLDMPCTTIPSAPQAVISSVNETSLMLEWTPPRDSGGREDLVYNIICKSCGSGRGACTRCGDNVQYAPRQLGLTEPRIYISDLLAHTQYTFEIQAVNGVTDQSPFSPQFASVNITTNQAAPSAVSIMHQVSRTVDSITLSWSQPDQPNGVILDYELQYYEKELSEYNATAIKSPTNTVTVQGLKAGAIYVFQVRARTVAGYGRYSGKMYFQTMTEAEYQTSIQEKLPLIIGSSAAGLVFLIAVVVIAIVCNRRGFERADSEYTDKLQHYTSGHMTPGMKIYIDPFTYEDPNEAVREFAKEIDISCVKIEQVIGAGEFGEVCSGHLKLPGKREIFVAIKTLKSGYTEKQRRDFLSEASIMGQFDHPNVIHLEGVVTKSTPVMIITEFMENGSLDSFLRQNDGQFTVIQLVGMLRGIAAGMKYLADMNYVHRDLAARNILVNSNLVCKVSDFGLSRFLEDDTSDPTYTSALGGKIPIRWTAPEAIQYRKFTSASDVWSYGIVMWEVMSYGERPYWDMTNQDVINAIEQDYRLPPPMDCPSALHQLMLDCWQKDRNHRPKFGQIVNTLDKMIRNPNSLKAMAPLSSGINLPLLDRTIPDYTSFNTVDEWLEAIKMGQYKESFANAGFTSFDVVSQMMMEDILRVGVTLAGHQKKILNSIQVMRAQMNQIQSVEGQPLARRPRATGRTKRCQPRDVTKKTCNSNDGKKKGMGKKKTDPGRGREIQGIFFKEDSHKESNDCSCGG

Fes = Fes (UniProt P07332); experiment: as above
Sequence of Fes (P07332 whole entry, looked up): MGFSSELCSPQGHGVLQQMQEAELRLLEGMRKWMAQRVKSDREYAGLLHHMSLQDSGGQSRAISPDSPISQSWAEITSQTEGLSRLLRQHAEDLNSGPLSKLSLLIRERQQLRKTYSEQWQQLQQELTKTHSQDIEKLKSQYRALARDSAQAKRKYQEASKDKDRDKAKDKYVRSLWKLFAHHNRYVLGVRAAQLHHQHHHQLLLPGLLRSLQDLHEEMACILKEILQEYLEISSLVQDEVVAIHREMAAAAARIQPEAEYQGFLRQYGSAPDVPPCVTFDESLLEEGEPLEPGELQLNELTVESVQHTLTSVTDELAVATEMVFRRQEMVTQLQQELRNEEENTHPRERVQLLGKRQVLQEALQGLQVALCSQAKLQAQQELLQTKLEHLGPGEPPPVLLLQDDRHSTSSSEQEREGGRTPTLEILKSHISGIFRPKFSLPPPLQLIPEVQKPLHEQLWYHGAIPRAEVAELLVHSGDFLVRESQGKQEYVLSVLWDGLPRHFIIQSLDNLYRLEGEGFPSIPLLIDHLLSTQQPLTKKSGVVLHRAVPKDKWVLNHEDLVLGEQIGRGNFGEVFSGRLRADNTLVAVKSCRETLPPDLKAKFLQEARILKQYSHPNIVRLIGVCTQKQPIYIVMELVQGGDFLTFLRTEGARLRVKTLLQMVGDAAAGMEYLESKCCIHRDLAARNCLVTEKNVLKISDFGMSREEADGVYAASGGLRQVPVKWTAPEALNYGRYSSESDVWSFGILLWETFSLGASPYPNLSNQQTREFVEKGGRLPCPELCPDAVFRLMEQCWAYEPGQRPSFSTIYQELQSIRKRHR

Fer (mouse) = experiment: as above
FGFR1 = FGFR1 (UniProt P11362); experiment: as above
EPHB1 = EPHB1 (UniProt P54762); experiment: as above
Sequence of EPHB1 (P54762 whole entry, looked up, the tested form may be a part): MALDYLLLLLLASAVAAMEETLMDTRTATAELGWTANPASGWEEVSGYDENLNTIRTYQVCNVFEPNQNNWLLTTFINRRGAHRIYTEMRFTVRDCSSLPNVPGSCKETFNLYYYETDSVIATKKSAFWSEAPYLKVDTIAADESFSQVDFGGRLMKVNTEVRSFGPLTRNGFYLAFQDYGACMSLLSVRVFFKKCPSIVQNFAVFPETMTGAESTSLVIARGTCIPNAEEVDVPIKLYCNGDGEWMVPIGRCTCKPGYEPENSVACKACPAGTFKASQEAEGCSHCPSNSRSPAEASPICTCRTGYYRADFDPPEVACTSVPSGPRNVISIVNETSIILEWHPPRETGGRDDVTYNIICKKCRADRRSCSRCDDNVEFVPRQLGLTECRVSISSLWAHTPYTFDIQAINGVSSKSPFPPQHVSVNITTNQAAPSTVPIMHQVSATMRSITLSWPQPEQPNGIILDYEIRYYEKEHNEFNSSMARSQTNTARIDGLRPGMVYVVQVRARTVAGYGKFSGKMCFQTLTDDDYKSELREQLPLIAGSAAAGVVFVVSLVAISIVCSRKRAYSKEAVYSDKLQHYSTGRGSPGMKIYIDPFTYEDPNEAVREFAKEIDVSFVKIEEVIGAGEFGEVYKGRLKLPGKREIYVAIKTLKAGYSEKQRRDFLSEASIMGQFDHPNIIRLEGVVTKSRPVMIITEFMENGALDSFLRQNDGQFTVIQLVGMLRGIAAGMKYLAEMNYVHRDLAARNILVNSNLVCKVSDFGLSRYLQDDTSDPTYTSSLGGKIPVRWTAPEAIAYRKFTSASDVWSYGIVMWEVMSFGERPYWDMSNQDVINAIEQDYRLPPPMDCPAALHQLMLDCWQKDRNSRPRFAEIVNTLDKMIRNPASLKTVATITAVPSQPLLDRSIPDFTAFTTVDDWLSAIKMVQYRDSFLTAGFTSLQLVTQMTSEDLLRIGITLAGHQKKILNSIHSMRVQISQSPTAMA
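Throughout, for SH2 binding enrichment of the phosphorylated peptide, bacterial display: peptide library displayed on the E. coli surface as eCPX fusions, selected cells deep-sequenced, score is each peptide's frequency after selection divided by its frequency in the input.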
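Throughout, for phosphorylation enrichment, bacterial display: 11-residue human phosphosite peptides and single-mutation variants displayed on the E. coli surface, counted by deep sequencing, each peptide's frequency after selection divided by its frequency in the unselected input library; frequency after pTyr selection over input frequency; kinase dosed for 20-30% of maximal phosphorylation in three min.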

Row | SH2 binding enrichment (c-Src SH2) | SH2 binding enrichment (SHP2-C SH2) | SH2 binding enrichment (Grb2 SH2) | Sequence | phosphorylation enrichment (AncSZ) | phosphorylation enrichment (MERTK) | phosphorylation enrichment (Jak2) | phosphorylation enrichment (c-Src) | phosphorylation enrichment (c-Abl (mouse)) | phosphorylation enrichment (Hck) | phosphorylation enrichment (Fyn) | phosphorylation enrichment (FGFR3) | phosphorylation enrichment (EPHB2) | phosphorylation enrichment (Fes) | phosphorylation enrichment (Fer (mouse)) | phosphorylation enrichment (FGFR1) | phosphorylation enrichment (EPHB1)
1 | 0.51 | 0.686 | 1.13 | KTVQDYLEKFY [MMP8_Y36] | 1.36 | 0.517 | 1.21 | 0.674 | 1.23 | 0.539 | 0.708 | 0.707 | 0.711 | 1.31 | 0.562 | 0.627 | 0.673
2 | 0.533 | 0.856 | 1.08 | HQEPVYSVAFS [TBL1X_Y509] | 4.16 | 14.5 | 0.688 | 9.13 | 30.7 | 14.2 | 15.6 | 3.89 | 31.1 | 2.74 | 24.1 | 4.88 | 25.8
3 | 1.24 | 0.848 | 0.688 | PSPMPYASCQM [FOXL2_Y215] | 1.28 | 0.608 | 0.98 | 0.865 | 0.666 | 0.661 | 0.519 | 0.625 | 0.65 | 1.07 | 1 | 0.671 | 0.631
4 | 0.474 | 0.847 | 0.766 | KGSEGYLAATF [NF1_Y2503_YF] | 0.654 | 0.514 | 0.709 | 0.564 | 0.634 | 0.416 | 0.501 | 0.549 | 0.402 | 0.658 | 0.45 | 0.444 | 0.41
5 | 0.6 | 0.738 | 0.996 | PLRAFYLIARV [HLCS_Y635_D634Y_YF] | 3.67 | 1.33 | 5.18 | 2.27 | 3.67 | 0.866 | 0.92 | 1.84 | 1.46 | 4.68 | 1.26 | 1.07 | 1.02
6 | 0.638 | 0.702 | 0.86 | KLQKFYRKNPD [EHHADH_Y683_Q685K_YF] | 0.447 | 0.449 | 0.469 | 0.48 | 0.549 | 0.402 | 0.389 | 0.329 | 0.32 | 0.541 | 0.302 | 0.401 | 0.348
7 | 0.545 | 0.43 | 0.76 | RRNSPYSQTMK [TET2_Y819] | 1.02 | 0.813 | 1.84 | 1.02 | 1.81 | 0.913 | 0.731 | 0.953 | 0.853 | 1.14 | 0.63 | 2.12 | 1.07
8 | 1.1 | 0.623 | 1.24 | LRVKMYNFLRS [ADGRG7_Y760] | 2.63 | 1.19 | 1.47 | 0.868 | 1.25 | 1.59 | 1.75 | 2.58 | 2.15 | 3.22 | 1.08 | 1.71 | 1.41
9 | 0.62 | 0.688 | 0.871 | WISNRYLDFSS [PRPH2_Y184] | 0.961 | 0.54 | 0.894 | 0.705 | 0.793 | 0.577 | 0.524 | 0.676 | 0.535 | 0.946 | 0.499 | 0.564 | 0.505
10 | 0.446 | 0.516 | 1.18 | LEGAKYVSHGA [ASS1_Y113_R108L] | 0.835 | 0.551 | 0.696 | 0.605 | 0.852 | 0.606 | 0.973 | 1.17 | 1.03 | 1.14 | 0.928 | 1 | 0.682
11 | 2.29 | 1.35 | 5.57 | VNNLVYENING [FRS2_Y306_K303N] | 1.17 | 5.31 | 0.571 | 5.42 | 0.703 | 7.03 | 6.01 | 0.576 | 4.94 | 2.21 | 11.8 | 0.57 | 11.8
12 | 1.2 | 0.72 | 0.818 | GLCSYYETSKM [MAGED2_Y449_R446C] | 1.39 | 1.25 | 1.3 | 1.81 | 0.955 | 0.926 | 0.68 | 4.99 | 1.11 | 1.18 | 1.01 | 6.32 | 1.67
13 | 0.538 | 0.651 | 0.838 | WTAHSYRMGST [ARHGEF7_Y785] | 0.642 | 0.37 | 0.432 | 0.374 | 0.437 | 0.432 | 0.479 | 0.47 | 0.407 | 0.659 | 0.482 | 0.496 | 0.46
14 | 0.4 | 0.634 | 0.542 | RGEEPYTKKAL [TTC21B_Y160_K157E] | 0.715 | 0.491 | 0.473 | 0.383 | 0.487 | 0.719 | 0.481 | 0.714 | 0.476 | 0.991 | 0.552 | 0.771 | 0.413
15 | 0.504 | 0.604 | 0.805 | EARRVYGDIIY [ALDH5A1_Y175_H180Y] | 0.683 | 0.42 | 0.813 | 1.14 | 0.597 | 1.27 | 1.59 | 0.579 | 0.725 | 0.834 | 0.648 | 0.491 | 0.455
16 | 0.588 | 0.636 | 0.711 | GQDLFYEDEDL [PACS1_Y303] | 1.28 | 0.746 | 1.43 | 0.598 | 0.839 | 0.737 | 0.688 | 1.24 | 0.628 | 1.39 | 1.79 | 0.626 | 0.922

Row | SH2 binding enrichment (c-Src SH2) | SH2 binding enrichment (SHP2-C SH2) | SH2 binding enrichment (Grb2 SH2) | Sequence | phosphorylation enrichment (AncSZ) | phosphorylation enrichment (MERTK) | phosphorylation enrichment (Jak2) | phosphorylation enrichment (c-Src) | phosphorylation enrichment (c-Abl (mouse)) | phosphorylation enrichment (Hck) | phosphorylation enrichment (Fyn) | phosphorylation enrichment (FGFR3) | phosphorylation enrichment (EPHB2) | phosphorylation enrichment (Fes) | phosphorylation enrichment (Fer (mouse)) | phosphorylation enrichment (FGFR1) | phosphorylation enrichment (EPHB1)
17 | 0.818 | 1.13 | 0.803 | LLANAYIYDVQ [L1CAM_Y418_V421D] | 1.17 | 2.71 | 1.22 | 3.69 | 0.538 | 4.13 | 6.7 | 0.616 | 1.56 | 1.27 | 0.802 | 0.391 | 1.46
18 | 0.513 | 0.423 | 0.827 | MHDKEYYSVHN [MET_Y1234_Y1230H] | 0.78 | 0.496 | 0.807 | 0.61 | 0.479 | 0.459 | 0.488 | 2.08 | 0.497 | 0.748 | 0.411 | 3.36 | 0.53
19 | 0.612 | 0.706 | 0.705 | ASTDFNKRGDF [PDHA1_Y243_Y243N_YF] | 0.511 | 0.418 | 0.53 | 0.44 | 0.521 | 0.462 | 0.365 | 0.378 | 0.341 | 0.585 | 0.347 | 0.373 | 0.297
20 | 0.534 | 0.771 | 0.939 | PFTRNYFVWAV [CYBA_Y87_R90W_YF] | 4.23 | 9.74 | 7.13 | 1.27 | 4.62 | 1.92 | 1.56 | 10.9 | 3.07 | 4.28 | 1.97 | 13.5 | 3.63
21 | 0.465 | 0.597 | 0.921 | TTTQAYRVDER [PRKN_Y391] | 0.709 | 0.404 | 0.57 | 0.389 | 0.714 | 0.446 | 0.482 | 0.512 | 0.439 | 0.758 | 0.479 | 0.446 | 0.473
22 | 0.999 | 1.16 | 1.05 | TKAEKYVNKPK [PLCG1_Y991_A995P] | 0.72 | 0.423 | 0.596 | 0.467 | 0.942 | 0.559 | 0.398 | 0.534 | 0.376 | 0.714 | 0.442 | 0.594 | 0.336
23 | 0.515 | 0.7 | 0.817 | GLDGRYLLRDS [SH2D1A_Y29_S28R] | 0.651 | 0.41 | 0.51 | 0.436 | 0.441 | 0.395 | 0.372 | 0.488 | 0.448 | 0.734 | 0.637 | 0.531 | 0.423
24 | 0.376 | 0.688 | 0.689 | SVESPYGSVTF [NDRG2_Y47_T45S] | 0.662 | 0.525 | 0.572 | 5.95 | 0.57 | 5.03 | 7.99 | 0.496 | 0.862 | 0.696 | 9.44 | 0.456 | 0.501
25 | 0.45 | 0.77 | 1.15 | HRGFLYLAIEY [TEK_Y899_Y897F] | 1.5 | 0.703 | 1.49 | 0.541 | 1.47 | 0.743 | 0.54 | 0.891 | 0.541 | 1.76 | 0.791 | 0.549 | 0.986
26 | 0.415 | 0.364 | 0.743 | INNIDYYKKTT [FGFR2_Y656] | 0.808 | 0.501 | 0.618 | 0.426 | 0.627 | 0.486 | 0.425 | 0.473 | 0.506 | 0.876 | 0.334 | 0.524 | 0.461
27 | 1.5 | 1.3 | 1.53 | CHRQLYHKCTH [F12_Y58_Y53C] | 0.497 | 0.543 | 0.667 | 0.457 | 0.599 | 0.471 | 0.402 | 0.576 | 0.461 | 0.796 | 0.491 | 0.494 | 0.447
28 | 0.604 | 1.06 | 0.861 | IDPFIYTPFGS [CYP3A4_Y432_YF] | 0.927 | 2.86 | 0.73 | 6.49 | 0.773 | 5.82 | 6.96 | 0.779 | 0.549 | 1.12 | 1.67 | 0.584 | 0.686
29 | 2.62 | 1.14 | 0.702 | EIRTQYEAMAS [GFAP_Y242] | 0.691 | 0.415 | 0.682 | 0.472 | 0.676 | 0.534 | 0.55 | 0.523 | 0.577 | 0.778 | 0.483 | 0.638 | 0.45
30 | 1.23 | 1.15 | 1.22 | CLSHCYFSQIR [MCM3AP_Y873_L870S] | 0.727 | 0.485 | 0.623 | 0.432 | 0.484 | 0.363 | 0.354 | 0.607 | 0.497 | 0.758 | 0.388 | 0.573 | 0.41
31 | 0.704 | 0.818 | 0.9 | LFHENYNAGTY [CFI_Y421_I416L] | 1.06 | 0.537 | 0.976 | 1.3 | 1.22 | 0.527 | 0.605 | 0.633 | 0.626 | 1.1 | 0.822 | 0.78 | 0.521
32 | 1.03 | 0.956 | 0.983 | PVQDAYQKVVA [HBB_Y131_A129D] | 0.526 | 0.379 | 0.425 | 0.386 | 0.421 | 0.353 | 0.366 | 0.429 | 0.308 | 0.453 | 0.493 | 0.397 | 0.445

Row | Sequence | SH2 binding enrichment (c-Src SH2) | SH2 binding enrichment (SHP2-C SH2) | SH2 binding enrichment (Grb2 SH2) | phosphorylation enrichment (AncSZ) | phosphorylation enrichment (MERTK) | phosphorylation enrichment (Jak2) | phosphorylation enrichment (c-Src) | phosphorylation enrichment (c-Abl (mouse)) | phosphorylation enrichment (Hck) | phosphorylation enrichment (Fyn) | phosphorylation enrichment (FGFR3) | phosphorylation enrichment (EPHB2) | phosphorylation enrichment (Fes) | phosphorylation enrichment (Fer (mouse)) | phosphorylation enrichment (FGFR1) | phosphorylation enrichment (EPHB1)
33 | DRLAVYIDRVR [LMNA_Y45] | 0.682 | 0.861 | 1.07 | 1.24 | 0.41 | 0.892 | 0.359 | 0.61 | 0.434 | 0.476 | 0.745 | 0.554 | 1.11 | 0.488 | 0.418 | 0.542
